Results from the supplement of paper PMC7877785.
± gives the uncertainty stated by the source.

Assay: self-splicing fitness, log relative to wild type (ln ratio); higher = more splicing; Tetrahymena group I intron in knt gene, E. coli kanamycin selection, DiMSum; sequences stand for … in CUCUCU…GGAGGGAAAAGUUAUCAGGCAUGCACCUGGUAGCUAGUCUUUAAACCAAUAGAUUGCAUCGGUUUAAAAGGCAAGACCGUCAAAUUGCGGGAAAGGGGUCAACAGCCGUUCAGUACCAAGUCUCAGGGGAAACUUUGAGAUGGCCUUGCAAAGGGUAUGGUAAUAAGCUGACGGACAUGGUCCUAACCACGCAGCCAAGUCCUAAGUCAACAGAUCUUCUGUUGAUAUGGAUGCAGUUCACAGACUAAAUGUCGGUCGGGGAAGAUGUAUUCUUCUCAUAAGAUAUAGUCGGACCUCUCCUUAAUGGGAGCUAGCGGAUGAAGUGAUGCAACACUGGAGCCGCUGGGAACUAAUUUGUAUGCGAAAGUAUAUUGAUUAGUUUUGGAGUACUCGUGGUCG
Method in brief: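 A randomised library covering all eight P1ex-region intron nucleotides was built with the intron in the knt kanamycin-resistance gene on pET-22b(+) and held in E. coli BL21(DE3). Cells were grown overnight at 37°C or 30°C on LB agar, with or without 25 μg/mL kanamycin, plus 100 μg/mL carbenicillin, 50 μM IPTG and 0.2% rhamnose, and pooled colonies were amplicon-sequenced on an Illumina HiSeq 2500. DiMSum fitness is the error-weighted combination of wild-type-normalised replicate fold changes, kanamycin versus none.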

| Sequence | self-splicing fitness (ln) (30 °C) | self-splicing fitness (ln) (37 °C) |
| --- | --- | --- |
| CCGCAGCAAUAUUACGCCAC | -3.33 ± 0.29 | -1.81 ± 0.28 |
| CCGCAGCAAUAUUACGCCAG | -0.493 ± 0.091 | -0.22 ± 0.14 |
| CCGCAGCAAUAUUACGCCGC | -4.21 ± 0.29 | -2.93 ± 0.48 |
| CCGCAGCAAUAUUACGCCUA | -3.92 ± 0.31 | -3.58 ± 0.3 |
| CCGCAGCAAUAUUACGGAAG | -3.05 ± 0.12 | -1.33 ± 0.11 |
| CCGCAGCAAUAUUACGGGUG | -1.22 ± 0.055 | -0.741 ± 0.069 |
| CCGCAGCAAUAUUACGGUGA | -2.46 ± 0.084 | -0.784 ± 0.075 |
| CCGCAGCAAUAUUACGGUUA | -3.25 ± 0.2 | -2.26 ± 0.2 |
| CCGCAGCAAUAUUACGUAGC | – | -0.697 ± 0.22 |
| CCGCAGCAAUAUUACGUAGU | -3.89 ± 0.14 | -2.88 ± 0.18 |
| CCGCAGCAAUAUUACGUAUG | -1.31 ± 0.055 | -0.172 ± 0.068 |
| CCGCAGCAAUAUUACGUAUU | -3.84 ± 0.17 | -2.66 ± 0.15 |
| CCGCAGCAAUAUUACGUCAA | -4.05 ± 0.33 | -3.04 ± 0.27 |
| CCGCAGCAAUAUUACGUGAA | -4.45 ± 0.21 | -1.88 ± 0.16 |
| CCGCAGCAAUAUUACGUGAC | -4.7 ± 0.39 | -1.96 ± 0.26 |
| CCGGAGCAAUAUUACGAAUG | -1.1 ± 0.074 | 0.21 ± 0.097 |
| CCGGAGCAAUAUUACGACGU | -0.341 ± 0.08 | -0.163 ± 0.096 |
| CCGGAGCAAUAUUACGAGUU | -3.65 ± 0.2 | -2.76 ± 0.29 |
| CCGGAGCAAUAUUACGAUAG | -0.959 ± 0.07 | -0.152 ± 0.081 |
| CCGGAGCAAUAUUACGAUGC | -2.69 ± 0.41 | – |
| CCGGAGCAAUAUUACGCACC | -1.27 ± 0.38 | – |
| CCGGAGCAAUAUUACGCACU | – | -2.69 ± 0.48 |
| CCGGAGCAAUAUUACGCCAA | – | -2.53 ± 0.26 |
| CCGGAGCAAUAUUACGCCAU | – | -2.18 ± 0.35 |
| CCGGAGCAAUAUUACGCGAG | -2.87 ± 0.3 | -1.79 ± 0.27 |

| Sequence | self-splicing fitness (ln) (30 °C) | self-splicing fitness (ln) (37 °C) |
| --- | --- | --- |
| CCGGAGCAAUAUUACGCGUG | -1.09 ± 0.14 | -0.996 ± 0.16 |
| CCGGAGCAAUAUUACGCUGU | -4.31 ± 0.34 | -2.4 ± 0.4 |
| CCGGAGCAAUAUUACGGCGG | -1.49 ± 0.15 | -2.15 ± 0.34 |
| CCGGAGCAAUAUUACGGGAC | -3.11 ± 0.31 | -2.5 ± 0.3 |
| CCGGAGCAAUAUUACGGGCG | -1.36 ± 0.11 | -1 ± 0.15 |
| CCGGAGCAAUAUUACGGUCC | -1.43 ± 0.23 | – |
| CCGGAGCAAUAUUACGGUGC | – | -1.63 ± 0.45 |
| CCGGAGCAAUAUUACGUCAA | -4.11 ± 0.32 | -3.39 ± 0.26 |
| CCGGAGCAAUAUUACGUCCA | -1.39 ± 0.21 | -1.66 ± 0.32 |
| CCGGAGCAAUAUUACGUGCA | -3.1 ± 0.35 | -2.06 ± 0.29 |
| CCGGAGCAAUAUUACGUUCG | -4.36 ± 0.46 | -1.92 ± 0.46 |
| CCGGAGCAAUAUUACGUUGU | -2.59 ± 0.21 | -2.56 ± 0.26 |
| CCGUAGCAAUAUUACGAAAC | -2.61 ± 0.41 | -0.972 ± 0.29 |
| CCGUAGCAAUAUUACGAAAU | -3.61 ± 0.32 | -2.7 ± 0.34 |
| CCGUAGCAAUAUUACGAACA | -2.12 ± 0.2 | -2.26 ± 0.19 |
| CCGUAGCAAUAUUACGAACC | – | -2.06 ± 0.45 |
| CCGUAGCAAUAUUACGACUA | – | -1.08 ± 0.25 |
| CCGUAGCAAUAUUACGCAAG | -2.09 ± 0.18 | -1.46 ± 0.18 |
| CCGUAGCAAUAUUACGCAGC | -3.54 ± 0.35 | -3.36 ± 0.25 |
| CCGUAGCAAUAUUACGCAGG | – | -2.75 ± 0.48 |
| CCGUAGCAAUAUUACGCCCA | – | -2.54 ± 0.48 |
| CCGUAGCAAUAUUACGCUAC | -4.65 ± 0.38 | -1.76 ± 0.21 |
| CCGUAGCAAUAUUACGCUCA | – | -2.36 ± 0.26 |
| CCGUAGCAAUAUUACGGAAC | -3.54 ± 0.41 | -2.13 ± 0.43 |
| CCGUAGCAAUAUUACGGAUA | – | -2.16 ± 0.28 |

| Sequence | self-splicing fitness (ln) (30 °C) | self-splicing fitness (ln) (37 °C) |
| --- | --- | --- |
| CCGUAGCAAUAUUACGGAUU | – | -3.01 ± 0.29 |
| CCGUAGCAAUAUUACGGCAG | -3.35 ± 0.26 | -2.28 ± 0.26 |
| CCGUAGCAAUAUUACGGGCA | -3.76 ± 0.42 | -2.14 ± 0.23 |
| CCGUAGCAAUAUUACGGGCU | -2.94 ± 0.16 | -2.27 ± 0.21 |
| CCGUAGCAAUAUUACGGUAA | -3.17 ± 0.24 | -3.3 ± 0.26 |
| CCGUAGCAAUAUUACGGUCA | -1.64 ± 0.12 | -2.27 ± 0.19 |
| CCGUAGCAAUAUUACGGUUA | -3.29 ± 0.16 | -1.57 ± 0.12 |
| CCGUAGCAAUAUUACGGUUU | -2.85 ± 0.16 | -3.05 ± 0.27 |
| CCGUAGCAAUAUUACGUACC | -4.4 ± 0.29 | -1.72 ± 0.34 |
| CCGUAGCAAUAUUACGUUAC | -4.02 ± 0.32 | -2.27 ± 0.42 |
| CCGUAGCAAUAUUACGUUAG | -2.22 ± 0.14 | -0.971 ± 0.14 |
| CCGUAGCAAUAUUACGUUCA | -1.34 ± 0.2 | -1.91 ± 0.25 |
| CCUAAGCAAUAUUACGAAUG | -1.63 ± 0.14 | -2.23 ± 0.16 |
| CCUAAGCAAUAUUACGACUC | -3.42 ± 0.38 | -2.04 ± 0.3 |
| CCUAAGCAAUAUUACGAGUG | -0.812 ± 0.045 | -0.282 ± 0.073 |
| CCUAAGCAAUAUUACGAUAU | -3.87 ± 0.32 | -2.6 ± 0.21 |
| CCUAAGCAAUAUUACGCACC | -3.09 ± 0.27 | -3.03 ± 0.28 |
| CCUAAGCAAUAUUACGCCUG | -3.62 ± 0.3 | -2.27 ± 0.3 |
| CCUAAGCAAUAUUACGCGGC | -1.89 ± 0.33 | -2.13 ± 0.42 |
| CCUAAGCAAUAUUACGCUGC | – | -3.02 ± 0.34 |
| CCUAAGCAAUAUUACGCUUU | -3.09 ± 0.23 | -2.17 ± 0.26 |
| CCUAAGCAAUAUUACGGAAA | – | -2.27 ± 0.27 |
| CCUAAGCAAUAUUACGGAUU | -4.68 ± 0.28 | -2.46 ± 0.23 |
| CCUAAGCAAUAUUACGGCGA | -2.84 ± 0.31 | -1.95 ± 0.27 |
| CCUAAGCAAUAUUACGUACA | -3.4 ± 0.5 | -2.9 ± 0.38 |

| Sequence | self-splicing fitness (ln) (30 °C) | self-splicing fitness (ln) (37 °C) |
| --- | --- | --- |
| CCUAAGCAAUAUUACGUAUC | -3.83 ± 0.32 | -2.33 ± 0.26 |
| CCUAAGCAAUAUUACGUCGA | -2.67 ± 0.23 | -2.77 ± 0.25 |
| CCUAAGCAAUAUUACGUGCA | -3.34 ± 0.18 | -1.91 ± 0.17 |
| CCUAAGCAAUAUUACGUGUG | -1.83 ± 0.057 | -1.49 ± 0.075 |
| CCUAAGCAAUAUUACGUUAA | -3.22 ± 0.4 | -2.49 ± 0.22 |
| CCUAAGCAAUAUUACGUUAC | -4.69 ± 0.36 | -3.03 ± 0.32 |
| CCUCAGCAAUAUUACGAACG | -0.86 ± 0.062 | -0.285 ± 0.096 |
| CCUCAGCAAUAUUACGACGC | -3.56 ± 0.4 | -2.43 ± 0.45 |
| CCUCAGCAAUAUUACGAGUU | -2.31 ± 0.1 | -1.11 ± 0.093 |
| CCUCAGCAAUAUUACGAUGA | -2.63 ± 0.21 | -2.8 ± 0.28 |
| CCUCAGCAAUAUUACGAUGU | -3.41 ± 0.15 | -1.3 ± 0.12 |
| CCUCAGCAAUAUUACGAUUG | -1.31 ± 0.068 | -0.558 ± 0.084 |
| CCUCAGCAAUAUUACGAUUU | -4.46 ± 0.22 | -1.39 ± 0.15 |
| CCUCAGCAAUAUUACGCACG | -2.46 ± 0.17 | -1.06 ± 0.18 |
| CCUCAGCAAUAUUACGCCAU | -2.88 ± 0.35 | -1.8 ± 0.18 |
| CCUCAGCAAUAUUACGCCCG | -0.527 ± 0.15 | -0.422 ± 0.18 |
| CCUCAGCAAUAUUACGCCUU | -3.95 ± 0.3 | -2.17 ± 0.22 |
| CCUCAGCAAUAUUACGCUGU | -2.84 ± 0.17 | -2.05 ± 0.25 |
| CCUCAGCAAUAUUACGGAGG | -4.45 ± 0.24 | -2.33 ± 0.21 |
| CCUCAGCAAUAUUACGGCCA | -2.68 ± 0.33 | -2.62 ± 0.33 |
| CCUCAGCAAUAUUACGGCGA | -3.72 ± 0.31 | -2.79 ± 0.22 |
| CCUCAGCAAUAUUACGGUAU | -4.53 ± 0.24 | -2.52 ± 0.15 |
| CCUCAGCAAUAUUACGUCAG | -2.92 ± 0.097 | -1.73 ± 0.1 |
| CCUCAGCAAUAUUACGUCUG | -3.75 ± 0.23 | -1.79 ± 0.19 |
| CCUCAGCAAUAUUACGUGAC | -3.76 ± 0.22 | -2.66 ± 0.24 |
